Measurements reported in PMC11535393, “Combining systems and synthetic biology for in vivo enzymology” (The EMBO Journal, 2024).

Key:
[1] = system: CC(C)=CCC/C(C)=C/CC/C(C)=C/CC/C(C)=C/COP(=O)(O)OP(=O)(O)O; experiment: cells, lysate or membranes; conditions: in living S. cerevisiae, exponential growth, 28 °C, medium pH 5.0, PGI1p expression, total intracellular substrate concentration, partial saturation
PaCrtI = biological target: T1, PaCrtI (Pantoea ananatis, UniProt P21685); experiment: in vivo lycopene flux vs intracellular phytoene in yeast strains, Michaelis-Menten fit; type: cell-based; conditions: read-out: K1/2cell; in living S. cerevisiae, exponential growth, 28 °C, medium pH 5.0; TDH3p expression; total intracellular substrate concentration; lower limit only, no saturation
T1 construct: gene crtI; full-length, yeast codon-optimized synthetic gene, expressed in Saccharomyces cerevisiae under TDH3p; V5 tag (CrtI-V5 in western blot)

[2] = substrate: CC(C)=CCC/C(C)=C/CC/C(C)=C/CC/C(C)=C/C=C\C=C(/C)CC/C=C(\C)CC/C=C(\C)CCC=C(C)C; experiment: as above; type: cell-based, Blakeslea trispora; conditions: in living S. cerevisiae, exponential growth, 28 °C, medium pH 5.0, PGI1p expression, total intracellular substrate concentration, enzyme level slightly higher in low-phytoene strains
[3] = substrate: CC(C)=CCC/C(C)=C/CC/C(C)=C/CC/C(C)=C/C=C\C=C(/C)CC/C=C(\C)CC/C=C(\C)CCC=C(C)C; experiment: as above; type: cell-based, Phaffia rhodozyma; conditions: in living S. cerevisiae, exponential growth, 28 °C, medium pH 5.0, PGK1p expression, total intracellular substrate concentration

T1 sequence (P21685 whole entry): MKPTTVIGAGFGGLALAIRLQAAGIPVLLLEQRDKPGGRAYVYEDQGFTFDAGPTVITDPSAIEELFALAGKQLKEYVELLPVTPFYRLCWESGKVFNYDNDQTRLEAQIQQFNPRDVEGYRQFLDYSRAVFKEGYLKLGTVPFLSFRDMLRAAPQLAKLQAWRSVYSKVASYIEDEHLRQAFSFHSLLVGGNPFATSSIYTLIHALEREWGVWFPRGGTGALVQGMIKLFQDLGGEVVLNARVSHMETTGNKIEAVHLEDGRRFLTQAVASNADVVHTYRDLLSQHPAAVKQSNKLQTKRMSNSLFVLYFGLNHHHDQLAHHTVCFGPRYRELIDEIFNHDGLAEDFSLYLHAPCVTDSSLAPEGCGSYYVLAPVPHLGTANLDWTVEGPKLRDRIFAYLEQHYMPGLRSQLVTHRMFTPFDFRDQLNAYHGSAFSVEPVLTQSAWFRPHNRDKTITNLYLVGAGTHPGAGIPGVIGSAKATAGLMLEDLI

## PaCrtB (Pantoea ananatis)
[1]
  K0.5: 19 ± 3 µM
  kcat: 6 ± 1 s⁻¹

## CC(C)=CCC/C(C)=C/CC/C(C)=C/CC/C(C)=C/C=C\C=C(/C)CC/C=C(\C)CC/C=C(\C)CCC=C(C)C [phytoene]
PaCrtI
  Km: > 560 µM

B1: BtCrtI (Blakeslea trispora) (protein)
chain: MSDQKKHIVVIGAGIGGTATAARLAREGFRVTVVEKNDFSGGRCSFIHHDGHRFDQGPSLYLMPKLFEDAFADLDERIGDHLDLLRCDNNYKVHFDDGDAVQLSSDLTKMKGELDRIEGPLGFGRFLDFMKETHVHYEQGTFIAIKRNFETIWDLIRLQYVPEIFRLHLFGKIYDRASKYFQTKKMRMAFTFQTMYMGMSPYDAPAVYSLLQYTEFAEGIWYPRGGFNMVVQKLESIASKKYGAEFRYQSPVAKINTVDKDKRVTGVTLESGEVIEADAVVCNADLVYAYHHLLPPCNWTKKTLASKKLTSSSISFYWSMSTKVPQLDVHNIFLAEAYKESFDEIFNDFGLPSEASFYVNVPSRIDESAAPPNKDSIIVLVPIGHMKSKTGNSAEENYPELVNRARKMVLEVIERRLGVNNFANLIEHEEVNDPSVWQSKFNLWRGSILGLSHDVFQVLWFRPSTKDSTNRYDNLFFVGASTHPGTGVPIVLAGSKLTSDQVCKSFGQNPLPRKLQDSQKKYAPEQTSKTESHWIYYCLACYFVTFLFFYFFPRDDTTTPASFINQLLPNVFQVQNSNDIRI
notes: full-length, yeast codon-optimized synthetic gene, expressed in Saccharomyces cerevisiae under PGI1p; V5 tag (CrtI-V5 in western blot)
[2]
  K0.5: 41 ± 12 µM

B2: XdCrtI (Phaffia rhodozyma) (protein)
chain: MGKEKDQDKPTAIIVGCGIGGIATAARLAKEGFQVTVFEKNDYSGGRCSLIERDGYRFDQGPSLLLLPDLFKQTFEDLGEKMEDWVDLIKCEPNYVCHFHDEETFTLSTDMALLKREVERFEGKDGFDRFLSFIQEAHRHYELAVVHVLQKNFPGFAAFLRLQFIGQILALHPFESIWTRVCRYFKTDRLRRVFSFAVMYMGQSPYSAPGTYSLLQYTELTEGIWYPRGGFWQVPNTLLQIVKRNNPSAKFNFNAPVSQVLLSPAKDRATGVRLESGEEHHADVVIVNADLVYASEHLIPDDARNKIGQLGEVKRSWWADLVGGKKLKGSCSSLSFYWSMDRIVDGLGGHNIFLAEDFKGSFDTIFEELGLPADPSFYVNVPSRIDPSAAPEGKDAIVILVPCGHIDASNPQDYNKLVARARKFVIQTLSAKLGLPDFEKMIVAEKVHDAPSWEKEFNLKDGSILGLAHNFMQVLGFRPSTRHPKYDKLFFVGASTHPGTGVPIVLAGAKLTANQVLESFDRSPAPDPNMSLSVPYGKPLKSNGTGIDSQVQLKFMDLERWVYLLVLLIGAVIARSVGVLAF
notes: full-length, gene amplified from a plasmid, expressed in Saccharomyces cerevisiae under PGK1p; V5 tag (CrtI-V5 in western blot)
[3]
  K0.5: 380 ± 49 µM
  kcat: 0.030 ± 0.006 s⁻¹
